In PMC4057782, “tRNA synthetase counteracts c-Myc to develop functional vasculature” (eLife, 2014):

Biological target: T1, GST-SerRS fusion protein (full-length human SerRS) (human, UniProt P49591 1-514)
T1 construct: also called GST-tagged SerRS
Assay: pull-down; GST or GST-SerRS fusion proteins (full-length or domain fragments) incubated with recombinant His-tagged SIRT2 for two hours and pulled down on Glutathione-Sepharose 4B; 20 mM HEPES pH 7.9, 150 mM NaCl, 0.5 mM EDTA, 10% glycerol, 0.1% Triton X-100, 1 mM DTT; SIRT2 detected with anti-His6
Details: both partners purified

T1 sequence (P49591 whole entry, the tested form may be a part): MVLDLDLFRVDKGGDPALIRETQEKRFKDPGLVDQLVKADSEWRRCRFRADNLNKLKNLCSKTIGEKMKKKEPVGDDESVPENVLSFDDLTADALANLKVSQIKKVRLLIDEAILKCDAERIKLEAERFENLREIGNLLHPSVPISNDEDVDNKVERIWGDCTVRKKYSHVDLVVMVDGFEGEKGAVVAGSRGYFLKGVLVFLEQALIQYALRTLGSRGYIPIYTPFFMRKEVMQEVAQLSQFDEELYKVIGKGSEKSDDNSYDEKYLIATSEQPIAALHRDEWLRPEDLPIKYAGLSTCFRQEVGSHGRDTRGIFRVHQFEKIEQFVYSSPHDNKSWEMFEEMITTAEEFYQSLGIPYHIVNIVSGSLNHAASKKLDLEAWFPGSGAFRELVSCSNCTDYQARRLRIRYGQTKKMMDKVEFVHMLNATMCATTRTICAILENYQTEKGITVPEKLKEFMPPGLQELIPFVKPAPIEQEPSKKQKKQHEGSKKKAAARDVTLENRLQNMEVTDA

B1: purified His-tagged human SIRT2 (enzyme, UniProt Q8IXJ6 1-389, looked up)
chain: MAEPDPSHPLETQAGKVQEAQDSDSDSEGGAAGGEADMDFLRNLFSQTLSLGSQKERLLDELTLEGVARYMQSERCRRVICLVGAGISTSAGIPDFRSPSTGLYDNLEKYHLPYPEAIFEISYFKKHPEPFFALAKELYPGQFKPTICHYFMRLLKDKGLLLRCYTQNIDTLERIAGLEQEDLVEAHGTFYTSHCVSASCRHEYPLSWMKEKIFSEVTPKCEDCQSLVKPDIVFFGESLPARFFSCMQSDFLKVDLLLVMGTSLQVQPFASLISKAPLSTPRLLINKEKAGQSDPFLGMIMGLGGGMDFDSKKAYRDVAWLGECDQGCLALAELLGWKKELEDLVRREHASIDAQSGAGVPNPSTSASPKKSPPPAKDEARTTEREKPQ
notes: The SIRT2 of the deacetylase assay is called only 'recombinant human SIRT2'; it may have come from the CycLex kit; also called recombinant SIRT2; His-tagged SIRT2; not shown: His tag, C-terminal, kept
- binding result: binds
